Measured values: PMC6917738, “Cooperative ordering of treadmilling filaments in cytoskeletal networks of FtsZ and its crosslinker ZapA” (Nature Communications, 2019)
Read-outs that look alike come from different tables or passages of the source.

Experiments:
[1] = biological target: FtsZ (UniProt P0A9A6); experiment: FRAP; membrane-bound filament network at steady state (15 min), small area bleached; half-time from fit to I(t) = a(1 - exp(-bt))
[2] = biological target: FtsZ (UniProt P0A9A6); experiment: single-molecule tracking by TIRF microscopy; small amounts of Cy5-labelled FtsZ (<2 nM) in 1.5 uM Alexa488-FtsZ, or of ZapA-Cy5 in unlabeled ZapA with 1.5 uM Alexa488-FtsZ, on supported bilayers; lifetime from a mono-exponential fit, corrected for photobleaching
[3] = biological target: FtsZ (UniProt P0A9A6); experiment: as above; remark: listed apart in the source
[4] = biological target: T1, FtsZ (UniProt P0A9A6 1-383, Cy5 or Alexa488 label on part of the protein (30% labelled in the self-organization assay; <2 nM Cy5-labelled FtsZ in 1.5 uM Alexa488-labelled FtsZ for single molecules); labelled site not stated); experiment: cell-based or functional assay
T1 sequence (looked up): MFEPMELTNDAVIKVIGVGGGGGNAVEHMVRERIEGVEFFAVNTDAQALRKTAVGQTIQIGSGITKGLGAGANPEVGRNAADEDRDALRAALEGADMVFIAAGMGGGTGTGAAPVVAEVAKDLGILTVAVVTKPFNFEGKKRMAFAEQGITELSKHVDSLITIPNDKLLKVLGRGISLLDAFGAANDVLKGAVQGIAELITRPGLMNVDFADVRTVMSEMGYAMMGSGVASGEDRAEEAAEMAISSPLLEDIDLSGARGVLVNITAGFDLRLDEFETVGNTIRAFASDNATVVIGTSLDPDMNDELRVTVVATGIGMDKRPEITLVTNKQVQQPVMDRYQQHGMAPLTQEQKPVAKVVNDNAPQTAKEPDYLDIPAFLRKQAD

[5] = biological target: the molecule itself; experiment: SEC; size-exclusion chromatography of ZapA wild type and mutants; conditions not shown

ZapA-Cy5 (from UniProt P0ADS2 1-109) (natural protein)
FRAP half-time of recovery [1]: 3.01 s
single-molecule lifetime [2]: 0.94 s
single-molecule lifetime [3]: 0.95

B1: ZapA wild type (natural protein, UniProt P0ADS2 1-109, looked up)
chain: MSAQPVDIQIFGRSLRVNCPPDQRDALNQAADDLNQRLQDLKERTRVTNTEQLVFIAALNISYELAQEKAKTRDYAASMEQRIRMLQQTIEQALLEQGRITEKTNQNFE
notes: ZapA, FtsZ-associated protein; also called ZapA WT; source: purified protein; protocols in the Supplementary Information
EC50 of ZapA for the correlation length of the FtsZ filament network at steady state (ρss) [4]: 1050 nM
EC50 of ZapA for the mean curvature of the FtsZ filament network at steady state (kss) [4]: 840 nM
stoichiometry N [5]: 4
